Experimental data reported in patent publication US20240115706A1 (LG CHEM, published 2024).

Columns and labels:
[1] = target: T1, human GUCY2C-rCD4 fusion protein (Homo sapiens (human); Rattus norvegicus, biotinylated (site not given)); test: SPR (Sierra SPR-32), scFv on protein G, antigen 800-12.5 nM, 25 C
T1 construct: GUCY2C conjugated/fused with CD4; also called Hu-GUCY2C-rCD4; human GUCY2C recombinant antigen
Description: Furthermore, the affinity to the GUCY2C antigen of the 18 kinds of scFvs produced in Example 1 was measured by SPR (Surface plasmon resonance) analysis.
SPR assay was performed with association time 2 min and dissociation time 10 min under the condition of 25 degrees of Celsius using MASS2 (Sierra SPR-32; Bruker). The data were analyzed with Software R3.

[2] = target: T1, human GUCY2C-rCD4 fusion protein; test: ranking ELISA (DELFIA), 5 nM scFv on anti-FLAG, biotinylated antigen, streptavidin-Eu
Description: (§1) More specifically, after coating an anti-FLAG antibody in a MaxiSorb plate and binding by adding scFvs obtained previously, the remaining scFvs were removed by a washing process. Here, a biotinylated human-GUCY2C-rCD4 protein was incubated and combined, and then the affinity to the antigen was measured by reading signals by DELFIA enhancement with color development through streptavidin-Europlum.

[3] = target: T1, human GUCY2C-rCD4 fusion protein; test: ranking ELISA (DELFIA), 50 nM scFv on anti-FLAG, biotinylated antigen, streptavidin-Eu
Description: as §1

[4] = target: T2, monkey GUCY2C-rCD4 fusion protein (Macaca fascicularis (crab-eating …, limits assumed)); test: ELISA (DELFIA), antigen on streptavidin plate, scFv culture solution, Eu-anti-tag Ab
T2 construct: Prepared by the same method as the human antigen; also called Cy-GUCY2C-rCD4; monkey GUCY2C recombinant antigen
T2 chain: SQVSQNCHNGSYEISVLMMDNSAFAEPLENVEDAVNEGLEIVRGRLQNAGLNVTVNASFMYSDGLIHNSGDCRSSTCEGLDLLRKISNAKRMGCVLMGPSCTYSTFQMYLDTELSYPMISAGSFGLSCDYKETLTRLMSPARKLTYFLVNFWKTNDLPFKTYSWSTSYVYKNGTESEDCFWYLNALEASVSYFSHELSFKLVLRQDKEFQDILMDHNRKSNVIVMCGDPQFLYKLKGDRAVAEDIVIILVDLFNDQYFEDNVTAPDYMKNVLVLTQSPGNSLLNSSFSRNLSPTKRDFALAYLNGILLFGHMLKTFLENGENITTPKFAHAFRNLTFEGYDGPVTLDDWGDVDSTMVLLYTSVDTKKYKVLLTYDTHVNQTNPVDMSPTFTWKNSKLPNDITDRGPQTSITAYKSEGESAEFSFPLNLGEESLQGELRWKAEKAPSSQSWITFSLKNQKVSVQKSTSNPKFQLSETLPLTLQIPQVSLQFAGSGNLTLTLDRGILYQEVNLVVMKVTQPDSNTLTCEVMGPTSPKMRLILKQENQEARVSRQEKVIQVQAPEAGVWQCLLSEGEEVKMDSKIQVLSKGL
Description: (§2) More specifically, GUCY2C-rCD4 fusion protein, in which the prepared human GUCY2C (SEQ ID NO: 112), monkey GUCY2C (SEQ ID NO: 114), and mouse GUCY2C (SEQ ID NO: 113) were fused, respectively, was bound to a place coated with streptavidin in a Nunc Maxisorp™96 well plate. After removing all the synthetic proteins not combined with washing buffer, the anti-GUCY2C scFV obtained in the culture solution was incubated in each well. After that, the affinity was measured by reading signals DELFIA enhanced using Eu-anti-tag Ab.

[5] = target: T3, mouse GUCY2C-rCD4 fusion protein (Mus musculus (house mouse); Rattus …, limits assumed); test: as above
T3 construct: Prepared by the same method as the human antigen; also called Mu-GUCY2C-rCD4; murine GUCY2C recombinant antigen
T3 chain: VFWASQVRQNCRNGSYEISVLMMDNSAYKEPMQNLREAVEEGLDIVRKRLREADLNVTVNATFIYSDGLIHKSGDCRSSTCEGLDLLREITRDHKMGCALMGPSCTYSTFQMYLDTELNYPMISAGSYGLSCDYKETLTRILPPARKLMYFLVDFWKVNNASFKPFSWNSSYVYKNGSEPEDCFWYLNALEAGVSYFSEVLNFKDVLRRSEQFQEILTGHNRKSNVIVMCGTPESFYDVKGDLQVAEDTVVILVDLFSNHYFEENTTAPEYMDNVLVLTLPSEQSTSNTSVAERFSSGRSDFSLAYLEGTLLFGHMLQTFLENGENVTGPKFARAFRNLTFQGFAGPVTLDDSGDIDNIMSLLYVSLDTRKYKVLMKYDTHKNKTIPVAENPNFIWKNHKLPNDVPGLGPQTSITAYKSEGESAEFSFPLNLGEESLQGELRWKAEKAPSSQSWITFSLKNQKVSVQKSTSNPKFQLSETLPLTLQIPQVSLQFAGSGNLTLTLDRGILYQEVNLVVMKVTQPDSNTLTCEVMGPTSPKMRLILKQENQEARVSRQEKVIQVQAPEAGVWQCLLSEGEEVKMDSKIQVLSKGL
Description: as §2

[6] = target: T1, human GUCY2C-rCD4 fusion protein; test: as above
Description: as §2

B1: scFv A07 (scFv)
scFv: QVQLQESGPGLVKPSETLSLTCTVSGGSISSYYWSWIRQPPGKGLEWIGSIYYSGSTNYNPSLKSRVTISRDKSKNQLFLKLNSMTAADTAVYYCARDVWGSGQSFDSWGQGTLVTVSSGGGGSGGGGSGGGASNFMLTQPHSVSESPGKTVTISCTRSSGSIASNYVQWYQQRLGSSPTTVIYEHSRRPSGVPDRFSASIDSSSNSASLTISGLKTEDEADYYCQSYDVSNRVFGGGTKLTVL
notes: also called 2427_01_C02
Kd [1]: 3.73 µM | Affinity Ranking ELISA (5 nM) signal [2]: 4740 | Affinity Ranking ELISA (50 nM) signal [3]: 27700 | Binding ELISA signal [4]: 51100 | Binding ELISA signal [5]: 17100 | Binding ELISA signal [6]: 79000
